Measurements as given in paper PMC9654457.

What was measured:
Test in all cases: two-hybrid; pairwise split-ubiquitin yeast two-hybrid of four baits (slToc159-1AGM, -1GM, -2AGM, -2GM) with isolated prey vectors in NMY51; qualitative PXG assay and quantitative β-galactosidase activity in 96-well plates, 60 min, mean of three experiments
[1] = target: slToc159-2AGM bait protein (tomato (Solanum lycopersicum))
[2] = target: slToc159-1AGM bait protein (tomato (Solanum lycopersicum))
[3] = target: slToc159-1GM bait protein (tomato (Solanum lycopersicum))
[4] = target: slToc159-2GM bait protein (tomato (Solanum lycopersicum))

| Substance | increase in interaction strength (β-galactosidase activity) against slToc159-2GM [1] | decrease in interaction strength (β-galactosidase activity) against slToc159-1AGM [3] | also measured |
| --- | --- | --- | --- |
| 3-oxoacyl-[acyl-carrier-protein] reductase (natural protein) | 61.7% |  |  |
| Cell division protein FtsZ (natural protein) |  |  | relative increase in interaction strength (β-galactosidase activity) against slToc159-1GM [2]: 66.1% |
| Chlorophyll a-b binding protein 7 (natural protein) |  | 65.4% | increase in interaction strength (β-galactosidase activity) against slToc159-2AGM [4]: 21.7% |
| Chlorophyll a-b binding protein 8 (natural protein) |  | 49.2% |  |
| Chlorophyll a-b binding protein (CAB11) (natural protein) |  | 20.7% |  |
| Chlorophyll a-b binding protein CP24 (natural protein) |  |  | decrease in affinity (β-galactosidase activity) against Toc159-2AGM [4]: 75.5% |
| Chlorophyll a/b binding protein Cab-3C (natural protein) |  | 38.4% | increase in interaction strength (β-galactosidase activity) against slToc159-2AGM [4]: 1360% |
| Glutamine synthetase (natural protein) |  |  | relative increase in interaction strength (β-galactosidase activity) against slToc159-1GM [2]: 28.8% |
| Heat shock cognate 70 kDa protein (natural protein) | 406% |  |  |
| Hop-interacting protein (THI026) (natural protein) | 152% |  |  |
| Photosystem I reaction center subunit II (natural protein) |  | 62% | increase in interaction strength (β-galactosidase activity) against slToc159-2AGM [4]: 57.8% |
| Photosystem I reaction center subunit III (natural protein) |  | 46.3% | decrease in affinity (β-galactosidase activity) against Toc159-2AGM [4]: 86% |
| Photosystem I reaction center subunit IV A (natural protein) |  |  | decrease in affinity (β-galactosidase activity) against Toc159-2AGM [4]: 53.7% |
| Photosystem I subunit O (natural protein) |  | 93.8% | decrease in affinity (β-galactosidase activity) against Toc159-2AGM [4]: 72.7% |
| Photosystem II 23 kDa protein (natural protein) |  | 88.7% | decrease in affinity (β-galactosidase activity) against Toc159-2AGM [4]: 89.2% |
| RuBisCO small subunit 1 (natural protein) |  |  | increase in interaction strength (β-galactosidase activity) against slToc159-2AGM [4]: 79.9% |
| RuBisCO small subunit 2A (natural protein) |  | 62.4% | increase in interaction strength (β-galactosidase activity) against slToc159-2AGM [4]: 615% |
| RuBisCO small subunit 3 (natural protein) |  | 24.5% | decrease in affinity (β-galactosidase activity) against Toc159-2AGM [4]: 37.1% |
| Serine hydroxymethyl transferase (natural protein) | 889% |  |  |
| Stearoyl-[acyl-carrier-protein] 9-desaturase (natural protein) | 81.1% |  | relative increase in interaction strength (β-galactosidase activity) against slToc159-1GM [2]: 866% |
| SufE-like protein 1 (natural protein) | 509% |  |  |
| photosystem II subunit S (natural protein) |  | 76.6% |  |
| thiamine biosynthesis protein (ThiC) (natural protein) | 81.6% |  | relative increase in interaction strength (β-galactosidase activity) against slToc159-1GM [2]: 476% |
